From PMC7954794, “Protein context shapes the specificity of SH3 domain-mediated interactions in vivo” (Nature Communications, 2021) come the findings set out here.

Test [1] has as its system 575 putative partners (preys) of 22 WT SH3-containing proteins. Put plainly: DHFR-PCA on solid medium, WT and SH3-deleted baits (Fig. 1B). The test is classed as cell-based, Saccharomyces cerevisiae. The following applies: number of PPIs; SH3 domain in its own protein; DHFR-PCA; Fig2D,S2F. The method, boiled down:
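In S. cerevisiae, 22 SH3-containing baits fused genomically to DHFR F[1,2], either WT or with each SH3 replaced via CRISPR by a poly-Gly/Ser linker, screened against 575 DHFR F[3] preys plus 40 negative controls in 1536 arrays, preys duplicated at randomized positions.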

Test [2] deals with Abp1 (1xFLAG). Put plainly: Western blot expression level of Abp1 SH3-swapped baits (Fig. S2A-B). It is filed as cell-based, Saccharomyces cerevisiae. Also noted: Flag (2 bands): unit not given here. Conditions: sheet FigS2A-B. A digest of the protocol:
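Yeast expressing DHFR F[1,2]-FLAG-tagged baits grown in synthetic complete medium at 30 °C to OD600 ~1.0, lysed with glass beads in Tris pH 7.4/150 mM NaCl/1% Triton X-100. Baits immunoprecipitated on FLAG-M2 beads 120 min at 4 °C, resolved on 10% SDS-PAGE, probed with anti-FLAG HRP (ECL), signals quantified by imager.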

B1: BBC1: yeast SH3-containing protein; SH3-deleted or knockout strain (protein, UniProt P47068 1-1157, looked up)
Myosin tail …: MSEPEVPFKVVAQFPYKSDYEDDLNFEKDQEIIVTSVEDAEWYFGEYQDSNGDVIEGIFPKSFVAVQGSEVGKEAESSPNTGSTEQRTIQPEVEQKDLPEPISPETKKETLSGPVPVPAATVPVPAATVPVPAATAVSAQVQHDSSSGNGERKVPMDSPKLKARLSMFNQDITEQVPLPKSTHLDLENIPVKKTIVADAPKYYVPPGIPTNDTSNLERKKSLKENEKKIVPEPINRAQVESGRIETENDQLKKDLPQMSLKERIALLQEQQRLQAAREEELLRKKAKLEQEHERSAVNKNEPYTETEEAEENEKTEPKPEFTPETEHNEEPQMELLAHKEITKTSREADEGTNDIEKEQFLDEYTKENQKVEESQADEARGENVAEESEIGYGHEDREGDNDEEKEEEDSEENRRAALRERMAKLSGASRFGAPVGFNPFGMASGVGNKPSEEPKKKQHKEKEEEEPEQLQELPRAIPVMPFVDPSSNPFFRKSNLSEKNQPTETKTLDPHATTEHEQKQEHGTHAYHNLAAVDNAHPEYSDHDSDEDTDDHEFEDANDGLRKHSMVEQAFQIGNNESENVNSGEKIYPQEPPISHRTAEVSHDIENSSQNTTGNVLPVSSPQTRVARNGSINSLTKSISGENRRKSINEYHDTVSTNSSALTETAQDISMAAPAAPVLSKVSHPEDKVPPHPVPSAPSAPPVPSAPSVPSAPPVPPAPPALSAPSVPPVPPVPPVSSAPPALSAPSIPPVPPTPPAPPAPPAPLALPKHNEVEEHVKSSAPLPPVSEEYHPMPNTAPPLPRAPPVPPATFEFDSEPTATHSHTAPSPPPHQNVTASTPSMMSTQQRVPTSVLSGAEKESRTLPPHVPSLTNRPVDSFHESDTTPKVASIRRSTTHDVGEISNNVKIEFNAQERWWINKSAPPAISNLKLNFLMEIDDHFISKRLHQKWVVRDFYFLFENYSQLRFSLTFNSTSPEKTVTTLQERFPSPVETQSARILDEYAQRFNAKVVEKSHSLINSHIGAKNFVSQIVSEFKDEVIQPIGARTFGATILSYKPEEGIEQLMKSLQKIKPGDILVIRKAKFEAHKKIGKNEIINVGMDSAAPYSSVVTDYDFTKNKFRVIENHEGKIIQNSYKLSHMKSGKLKVFRIVARGYVGW
For B1, in test [1], the “SH3-dependent PPIs” value was found to be 19. Further, the “Ratio Swap/WT Flag” value in test [2] (Flag signal relative to Abp1 WT (Abp1-1 to Abp1-4 = 1)) is 0.7943. Also, the “Flag (2 bands)” value in test [2] (Western blot Flag signal (2 bands), Abp1 WT, SH3-deleted or SH3-swapped) is listed as 76893.
